Patent US20220040297A1 (Chugai, published 2022)

T1: biotin-labeled human CD154 (human, UniProt P29965 113-261, limits assumed, biotin-labeled)
T1 construct: also called biotinylated human CD154
T1 sequence (looked up): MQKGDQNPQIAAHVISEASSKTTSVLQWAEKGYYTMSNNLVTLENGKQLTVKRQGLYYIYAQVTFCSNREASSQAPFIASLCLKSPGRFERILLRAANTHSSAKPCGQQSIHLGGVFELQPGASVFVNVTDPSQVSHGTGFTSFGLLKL


Experiments:
[1] = target: T1, biotin-labeled human CD154; assay: ECL competition: biotinylated CD154, CD3ε homodimer as competitor [2]
Method: (§1) Next, each obtained IgG was evaluated for its binding to CD3 and human CD154 at the same time by the competition method (electrochemiluminescence method (ECL method)).
(§2) A TBST solution containing 0.5% BSA (referred to as a blocking solution; the TBST solution was TBS (manufactured by Takara Bio Inc.) supplemented with 0.1% Tween 20) was added at 150 μL/well to streptavidin plate (MSD K.K.), and the plate was incubated at room temperature for 1 hour or longer. After removal of the blocking solution, each well was washed three times with 250 μL of a TBST solution. The antibody-antigen complex solution was added thereto at 50 L/well, and the plate was incubated at room temperature for 1 hour so that the biotinylated antigen-antibody-detection sulfo-tag antibody complex solution bound via the biotinylated antigen to the streptavidin plate. After removal of the antibody-antigen complex solution, each well was washed three times with a TBST solution, and a solution of 4× READ buffer (MSD K.K.) diluted 2-fold with water was added thereto at 150 μL/well, followed by the detection of the luminescence signal of the sulfo-tag using Sector Imager 2400 (MSD K.K.).

[2] = target: T1, biotin-labeled human CD154; assay: ECL competition: biotinylated CD154, CD3ε homodimer as competitor [1]
Method: as §1, §2

| Binder | Relative ECL reaction (to no antigen coating), CD3ε[+] [1] | Relative ECL reaction (to no antigen coating), CD3ε[+] [2] |
| --- | --- | --- |
| 154R5A02#1 (antibody, human IgG1, kappa, L234A L235A, N297A, One-arm antibody) heavy: QVQLVESGGGLVQPGRSLRLSCAASGFTFSNAWMHWVRQAPGKGLEWVAQIKDRGNNYNTYYAPSVKGRFTISRDDSKNSIYLQMNSLKTEDTAVYYCRYVHYGSYFFSGSSFGVDIWGQGTTVTVSSASTKGPSVFPLAPSSKSTSGGTAALGCLVKDYFPEPVTVSWNSGALTSGVHTFPAVLQSSGLYSLSSVVTVPSSSLGTQTYICNVNHKPSNTKVDKKVEPKSCDKTHTCPPCPAPEAAGGPSVFLFPPKPKDTLMISRTPEVTCVVVDVSHEDPEVKFNWYVDGVEVHNAKTKPREEQYASTYRVVSVLTVLHQDWLNGKEYKCKVSNKALPAPIEKTISKAKGQPREPQVYTLPPSRCELTKNQVSLSCAVKGFYPSDIAVEWESNGQPENNYKTTPPVLDSDGSFFLVSKLTVDKSRWQQGNVFSCSVMHEALHNHYTQKSLSLSPDYKDDDDK EPKSSDKTHTCPPCPAPELLGGPSVFLFPPKPKDTLMISRTPEVTCVVVDVSHEDPEVKFNWYVDGVEVHNAKTKPREEQYNSTYRVVSVLTVLHQDWLNGKEYKCKVSNKALPAPIEKTISKAKGQPREPQVCTLPPSRDELTKNQVSLWCLVKGFYPSDIAVEWESNGQPENNYKTTPPVLDSDGSFFLYSKLTVDKSRWQQGNVFSCSVMHEALHNRYTQKSLSLSP light: DIVMTQSPLSLPVTPGEPASISCRSSQSLVHSNRNTYLHWYQQKPGQAPRLLIYKVSNRFSGVPDRFSGSGSGTDFTLKISRVEAEDVGVYYCGQGTQVPYTFGQGTKLEIKRTVAAPSVFIFPPSDEQLKSGTASVVCLLNNFYPREAKVQWKVDNALQSGNSQESVTEQDSKDSTYSLSSTLTLSKADYEKHKVYACEVTHQGLSSPVTKSFNRGEC | 10 |  |
| 154R5A02#2 (antibody, human IgG1, kappa, L234A L235A, N297A, One-arm antibody) heavy: QVQLVESGGGLVQPGRSLRLSCAASGFTFSNAWMHWVRQAPGKGLEWVAQIKDRGNNYNTYYAPSVKGRFTISRDDSKNSIYLQMNSLKTEDTAVYYCRYAHYGSYFFSGSSFGVDIWGQGTTVTVSSASTKGPSVFPLAPSSKSTSGGTAALGCLVKDYFPEPVTVSWNSGALTSGVHTFPAVLQSSGLYSLSSVVTVPSSSLGTQTYICNVNHKPSNTKVDKKVEPKSCDKTHTCPPCPAPEAAGGPSVFLFPPKPKDTLMISRTPEVTCVVVDVSHEDPEVKFNWYVDGVEVHNAKTKPREEQYASTYRVVSVLTVLHQDWLNGKEYKCKVSNKALPAPIEKTISKAKGQPREPQVYTLPPSRCELTKNQVSLSCAVKGFYPSDIAVEWESNGQPENNYKTTPPVLDSDGSFFLVSKLTVDKSRWQQGNVFSCSVMHEALHNHYTQKSLSLSPDYKDDDDK EPKSSDKTHTCPPCPAPELLGGPSVFLFPPKPKDTLMISRTPEVTCVVVDVSHEDPEVKFNWYVDGVEVHNAKTKPREEQYNSTYRVVSVLTVLHQDWLNGKEYKCKVSNKALPAPIEKTISKAKGQPREPQVCTLPPSRDELTKNQVSLWCLVKGFYPSDIAVEWESNGQPENNYKTTPPVLDSDGSFFLYSKLTVDKSRWQQGNVFSCSVMHEALHNRYTQKSLSLSP light: DIVMTQSPLSLPVTPGEPASISCRSSQSLVHSNRNTYLHWYQQKPGQAPRLLIYKVSNRFSGVPDRFSGSGSGTDFTLKISRVEAEDVGVYYCGQGTQVPYTFGQGTKLEIKRTVAAPSVFIFPPSDEQLKSGTASVVCLLNNFYPREAKVQWKVDNALQSGNSQESVTEQDSKDSTYSLSSTLTLSKADYEKHKVYACEVTHQGLSSPVTKSFNRGEC | 106 |  |
| 154R5E11#3 (antibody, human IgG1, kappa, L234A L235A, N297A, One-arm antibody) heavy: QVQLVESGGGLVQPGRSLRLSCAASGFTFSNAWMHWVRQAPGKGLEWVAQIKDRGNNYAAYYAESVKGRFTISRDDSKNSIYLQMNSLKTEDTAVYYCRYVHYGSYFFASFYFGVDIWGQGTAVTVSSASTKGPSVFPLAPSSKSTSGGTAALGCLVKDYFPEPVTVSWNSGALTSGVHTFPAVLQSSGLYSLSSVVTVPSSSLGTQTYICNVNHKPSNTKVDKKVEPKSCDKTHTCPPCPAPEAAGGPSVFLFPPKPKDTLMISRTPEVTCVVVDVSHEDPEVKFNWYVDGVEVHNAKTKPREEQYASTYRVVSVLTVLHQDWLNGKEYKCKVSNKALPAPIEKTISKAKGQPREPQVYTLPPSRCELTKNQVSLSCAVKGFYPSDIAVEWESNGQPENNYKTTPPVLDSDGSFFLVSKLTVDKSRWQQGNVFSCSVMHEALHNHYTQKSLSLSPDYKDDDDK EPKSSDKTHTCPPCPAPELLGGPSVFLFPPKPKDTLMISRTPEVTCVVVDVSHEDPEVKFNWYVDGVEVHNAKTKPREEQYNSTYRVVSVLTVLHQDWLNGKEYKCKVSNKALPAPIEKTISKAKGQPREPQVCTLPPSRDELTKNQVSLWCLVKGFYPSDIAVEWESNGQPENNYKTTPPVLDSDGSFFLYSKLTVDKSRWQQGNVFSCSVMHEALHNRYTQKSLSLSP light: DIVMTQSPLSLPVTPGEPASISCRSSQSLVHSNRNTYLHWYQQKPGQAPRLLIYKVSNRFSGVPDRFSGSGSGTDFTLKISRVEAEDVGVYYCGQGTQVPYTFGQGTKLEIKRTVAAPSVFIFPPSDEQLKSGTASVVCLLNNFYPREAKVQWKVDNALQSGNSQESVTEQDSKDSTYSLSSTLTLSKADYEKHKVYACEVTHQGLSSPVTKSFNRGEC | 1 |  |
| 154R5F08#1 (antibody, human IgG1, kappa, L234A L235A, N297A, One-arm antibody) heavy: QVQLVESGGGLVQPGRSLRLSCAASGFTFSNAWMHWVRQAPGKGLEWVAQIKDKGNQYATYYAESVKGRFTISRDDSKNSIYLQMNSLKTEDTAVYYCRYVHYGTYFFALPAFGVDIWGQGTTVTVSSASTKGPSVFPLAPSSKSTSGGTAALGCLVKDYFPEPVTVSWNSGALTSGVHTFPAVLQSSGLYSLSSVVTVPSSSLGTQTYICNVNHKPSNTKVDKKVEPKSCDKTHTCPPCPAPEAAGGPSVFLFPPKPKDTLMISRTPEVTCVVVDVSHEDPEVKFNWYVDGVEVHNAKTKPREEQYASTYRVVSVLTVLHQDWLNGKEYKCKVSNKALPAPIEKTISKAKGQPREPQVYTLPPSRCELTKNQVSLSCAVKGFYPSDIAVEWESNGQPENNYKTTPPVLDSDGSFFLVSKLTVDKSRWQQGNVFSCSVMHEALHNHYTQKSLSLSPDYKDDDDK EPKSSDKTHTCPPCPAPELLGGPSVFLFPPKPKDTLMISRTPEVTCVVVDVSHEDPEVKFNWYVDGVEVHNAKTKPREEQYNSTYRVVSVLTVLHQDWLNGKEYKCKVSNKALPAPIEKTISKAKGQPREPQVCTLPPSRDELTKNQVSLWCLVKGFYPSDIAVEWESNGQPENNYKTTPPVLDSDGSFFLYSKLTVDKSRWQQGNVFSCSVMHEALHNRYTQKSLSLSP light: DIVMTQSPLSLPVTPGEPASISCRSSQSLVHSNRNTYLHWYQQKPGQAPRLLIYKVSNRFSGVPDRFSGSGSGTDFTLKISRVEAEDVGVYYCGQGTQVPYTFGQGTKLEIKRTVAAPSVFIFPPSDEQLKSGTASVVCLLNNFYPREAKVQWKVDNALQSGNSQESVTEQDSKDSTYSLSSTLTLSKADYEKHKVYACEVTHQGLSSPVTKSFNRGEC | 13 |  |
| 154R5F08#3 (antibody, human IgG1, kappa, L234A L235A, N297A, One-arm antibody) heavy: QVQLVESGGGLVQPGRSLRLSCAASGFTFSNAWMHWVRQAPGKGLEWVAQIKDKGNQYATYYAESVKGRYTISRDDSKNSIYLQMNSLKTEDTAVYYCRYVHYGTYFFALPAFGVDIWGQGTTVTVSSASTKGPSVFPLAPSSKSTSGGTAALGCLVKDYFPEPVTVSWNSGALTSGVHTFPAVLQSSGLYSLSSVVTVPSSSLGTQTYICNVNHKPSNTKVDKKVEPKSCDKTHTCPPCPAPEAAGGPSVFLFPPKPKDTLMISRTPEVTCVVVDVSHEDPEVKFNWYVDGVEVHNAKTKPREEQYASTYRVVSVLTVLHQDWLNGKEYKCKVSNKALPAPIEKTISKAKGQPREPQVYTLPPSRCELTKNQVSLSCAVKGFYPSDIAVEWESNGQPENNYKTTPPVLDSDGSFFLVSKLTVDKSRWQQGNVFSCSVMHEALHNHYTQKSLSLSPDYKDDDDK EPKSSDKTHTCPPCPAPELLGGPSVFLFPPKPKDTLMISRTPEVTCVVVDVSHEDPEVKFNWYVDGVEVHNAKTKPREEQYNSTYRVVSVLTVLHQDWLNGKEYKCKVSNKALPAPIEKTISKAKGQPREPQVCTLPPSRDELTKNQVSLWCLVKGFYPSDIAVEWESNGQPENNYKTTPPVLDSDGSFFLYSKLTVDKSRWQQGNVFSCSVMHEALHNRYTQKSLSLSP light: DIVMTQSPLSLPVTPGEPASISCRSSQSLVHSNRNTYLHWYQQKPGQAPRLLIYKVSNRFSGVPDRFSGSGSGTDFTLKISRVEAEDVGVYYCGQGTQVPYTFGQGTKLEIKRTVAAPSVFIFPPSDEQLKSGTASVVCLLNNFYPREAKVQWKVDNALQSGNSQESVTEQDSKDSTYSLSSTLTLSKADYEKHKVYACEVTHQGLSSPVTKSFNRGEC | 10 |  |
| 154R4B03#4 (antibody, human IgG1, kappa, L234A L235A, N297A, One-arm antibody) heavy: QVQLVESGGGLVQPGRSLRLSCAASGFTFSNAWMHWVRQAPGKGLEWVAQIKDKQSQYANYYAPSVKGRFTISRDDSKSSIYLQMNSLKTEDTAVYYCRYVHYQSTSYSFYQGGVDAWGQGTTVTVSSASTKGPSVFPLAPSSKSTSGGTAALGCLVKDYFPEPVTVSWNSGALTSGVHTFPAVLQSSGLYSLSSVVTVPSSSLGTQTYICNVNHKPSNTKVDKKVEPKSCDKTHTCPPCPAPEAAGGPSVFLFPPKPKDTLMISRTPEVTCVVVDVSHEDPEVKFNWYVDGVEVHNAKTKPREEQYASTYRVVSVLTVLHQDWLNGKEYKCKVSNKALPAPIEKTISKAKGQPREPQVYTLPPSRCELTKNQVSLSCAVKGFYPSDIAVEWESNGQPENNYKTTPPVLDSDGSFFLVSKLTVDKSRWQQGNVFSCSVMHEALHNHYTQKSLSLSPDYKDDDDK EPKSSDKTHTCPPCPAPELLGGPSVFLFPPKPKDTLMISRTPEVTCVVVDVSHEDPEVKFNWYVDGVEVHNAKTKPREEQYNSTYRVVSVLTVLHQDWLNGKEYKCKVSNKALPAPIEKTISKAKGQPREPQVCTLPPSRDELTKNQVSLWCLVKGFYPSDIAVEWESNGQPENNYKTTPPVLDSDGSFFLYSKLTVDKSRWQQGNVFSCSVMHEALHNRYTQKSLSLSP light: DIVMTQSPLSLPVTPGEPASISCRSSQSLVHSNRNTYLHWYQQKPGQAPRLLIYKVSNRFSGVPDRFSGSGSGTDFTLKISRVEAEDVGVYYCGQGTQVPYTFGQGTKLEIKRTVAAPSVFIFPPSDEQLKSGTASVVCLLNNFYPREAKVQWKVDNALQSGNSQESVTEQDSKDSTYSLSSTLTLSKADYEKHKVYACEVTHQGLSSPVTKSFNRGEC |  | 20 |
